This is an account of results in patent publication US20190218253A1 (NATIONAL UNIVERSITY OF SINGAPORE, published 2019).

The target of test [1] is T1, retinoblastoma binding protein 4 (RBBp4) (UniProt Q09028 1-425).
T1 construct: Bought protein; Crystal structure numbering runs at least over residues 33-404; also called RbAp48
In words: fluorescence polarization competition: peptide titrated into RBBp4 + C-terminal FITC-labelled WT SALL4 peptide. The method, then:
(§1) Reactions were incubated at room temperature before the plate was read with an Envision instrument (Perkin Elmer). IC₅₀ values of peptides were determined using Prism (GraphPad).
In general terms: Polarisation of emitted light reports the rotation of a fluorescent probe.

In test [2] the target is T1, retinoblastoma binding protein 4 (RBBp4). In words: fluorescence polarization competition, ratio of IC50s. How it is done: These three substitutions (Gln4Phe, Pro7Phe, and His9Trp) were incorporated into peptide 46 ([…], named FFW hereof, (SEQ ID NO: 14)).
as §1

The target is the same in test [3]. Description: fluorescence polarization competition: peptide titrated into RBBp4 + C-terminal FITC-labelled WT SALL4 peptide. The source holds these as a separate data set.
The target is the same in test [4]. Description: fluorescence polarization competition; peptide titrated into RBBp4 with C-labelled FITC-SALL4 WT peptide as the displaced tracer. The method, then: (§2) FIGS. 3A-3E. […] The difference in the binding free energy (ΔΔGbind) of the alanine mutants (ΔGₘᵤₜₐₙₜ, Ala7 was mutated to glycine) and wild type (ΔG_{wild type}) was calculated (ΔΔGbind=ΔGₘᵤₜₐₙₜ−ΔG_{wild type}). ΔΔGbind was tabulated (left) and plotted in a bar chart (right). […] Mutated residues are highlighted in red. The IC₅₀ of each peptide, including WT, was determined by Fluorescence Polarization (FP). […] Polarization was measured in mP. […] Pep-1 carrier was added to the peptide to facilitate cellular penetration of the peptides.
(§3) In silico analysis using computational alanine scanning was performed on the key residues identified by the crystal contacts.

For test [5] the target is unchanged. The test is described as above. The method, then: as §2, §3
The source holds these as a separate data set.

Square brackets hold non-standard residues; d marks the D form.

T1 sequence (Q09028 whole entry, the tested form may be a part): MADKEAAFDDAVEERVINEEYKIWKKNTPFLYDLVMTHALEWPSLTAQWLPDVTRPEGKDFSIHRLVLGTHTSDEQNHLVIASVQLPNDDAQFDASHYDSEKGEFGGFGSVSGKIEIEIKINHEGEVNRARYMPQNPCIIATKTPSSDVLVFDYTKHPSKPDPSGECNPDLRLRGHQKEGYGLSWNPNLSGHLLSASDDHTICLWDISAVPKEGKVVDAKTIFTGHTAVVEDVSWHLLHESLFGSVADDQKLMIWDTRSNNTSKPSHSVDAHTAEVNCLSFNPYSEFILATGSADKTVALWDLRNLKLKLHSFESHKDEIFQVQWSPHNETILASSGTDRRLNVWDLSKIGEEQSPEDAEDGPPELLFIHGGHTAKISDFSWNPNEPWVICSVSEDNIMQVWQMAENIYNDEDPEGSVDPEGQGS

B1: Peptide 5 (Ac-SRRKQAKPQHI-NH2) (peptide)
peptide: Ac-SRRKQAKPQHI-NH2
notes: N-terminal truncation of WT
For the molecule B1, the IC50 – broadly, the concentration that gives 50% inhibition – in test [1] came to 600 nM.

B2: Peptide 46 (Ac-RRKFAKFQWI-NH2), FFW (peptide)
peptide: Ac-RRKFAKFQWI-NH2
notes: Gln4Phe, Pro7Phe and His9Trp of peptide 6; also called FFW peptide
In the case of B2, the “fold increase in affinity compared with the 12-residue WT peptide” value in test [2] was above 56 fold. In test [1], the IC50 is 23 nM.

B3: Peptide 2 (Ac-MSRRKQAKPQH-NH2) (peptide)
peptide: Ac-MSRRKQAKPQH-NH2
notes: C-terminal truncation of WT
As for B3, the 50% inhibitory concentration (IC50) in test [3] is 1400 nM; in test [1], 1290 nM.

B4: Peptide 6 (printed Ac-…-NH2; WT without Met1 and Ser2) (peptide)
peptide: Ac-RRKQAKPQHI-NH2
Consider B4, for which the 50% inhibitory concentration (IC50) in test [1] turned out to be 360 nM.

B5: Peptide 34 (Ac-RRKQAKFQHI-NH2) (peptide)
peptide: Ac-RRKQAKFQHI-NH2
Consider B5, for which, in test [1], the IC50 is 170 nM.

B6: Peptide 44 (printed Ac-RRKCIAKPOHL-NH2) (peptide)
peptide: Ac-RRKQAKPQHL-NH2
notes: To be rechecked
As for B6, in test [1], the IC50 is 590 nM.

B7: Peptide 35 (Ac-RRKQAKPEHI-NH2) (peptide)
peptide: Ac-RRKQAKPEHI-NH2
Take B7: the half-maximal inhibitory concentration (IC50) in test [1] amounted to 570 nM.

B8: Peptide 29 (Ac-RRKQAFPQHI-NH2) (peptide)
peptide: Ac-RRKQAFPQHI-NH2
In the case of B8, the IC50 in test [1] was 530 nM.

B9: Peptide 37 (Ac-RRKQAKPVHI-NH2) (peptide)
peptide: Ac-RRKQAKPVHI-NH2
Regarding B9, in test [1], the IC50 came to 350 nM.

B10: Peptide 20 (Ac-RRKEAKPQHI-NH2) (peptide)
peptide: Ac-RRKEAKPQHI-NH2
notes: Q4 mutation of peptide 6
Regarding B10, the IC50 in test [1] amounted to 3490 nM.

B11: Peptide 30 (Ac-RRKQARPQHI-NH2) (peptide)
peptide: Ac-RRKQARPQHI-NH2
Turning to B11, in test [1], the IC50 turned out to be 330 nM.

B12: Peptide 22 (Ac-RRKVAKPQHI-NH2) (peptide)
peptide: Ac-RRKVAKPQHI-NH2
notes: Q4 mutation of peptide 6
Take B12: the IC50 in test [1] was 410 nM.

B13: Peptide 40 (Ac-RRKQAKPQYI-NH2) (peptide)
peptide: Ac-RRKQAKPQYI-NH2
In the case of B13, the half-inhibitory concentration (IC50) in test [1] worked out at 2850 nM.

B14: Peptide 26 (Ac-RRKQRKPQHI-NH2) (peptide)
peptide: Ac-RRKQRKPQHI-NH2
Turning to B14, the IC50 in test [1] worked out at 460 nM.

B15: Peptide 14 (Ac-RRKQAKPAHI-NH2) (peptide)
peptide: Ac-RRKQAKPAHI-NH2
Consider B15, for which the half-inhibitory concentration (IC50) in test [1] was 120 nM.

B16: Peptide 23 (Ac-RRKLAKPQHI-NH2) (peptide)
peptide: Ac-RRKLAKPQHI-NH2
notes: Q4 mutation of peptide 6
Consider B16, for which, in test [1], the IC50 amounted to 270 nM.

B17: Peptide 15 (Ac-RRKQAKPQAI-NH2) (peptide)
peptide: Ac-RRKQAKPQAI-NH2
With B17, the IC50 in test [1] turned out to be 730 nM.

B18: Peptide 41 (Ac-RRKQAKPQWI-NH2) (peptide)
peptide: Ac-RRKQAKPQWI-NH2
In the case of B18, the “fold improvement of binding affinity compared with peptide 6” value in test [2] turned out to be 3 fold. In test [1], the IC50 amounted to 120 nM.

B19: Peptide 39 (Ac-RRKQAKPQFI-NH2) (peptide)
peptide: Ac-RRKQAKPQFI-NH2
On to B19, for which the IC50 in test [1] stood at 340 nM.

B20: Peptide 36 (Ac-RRKQAKPNHI-NH2) (peptide)
peptide: Ac-RRKQAKPNHI-NH2
B20: in test [1], the IC50 came to 790 nM.

B21: Peptide 27 (Ac-RRKQAVPQHI-NH2) (peptide)
peptide: Ac-RRKQAVPQHI-NH2
As for B21, in test [1], the concentration for half-maximal inhibition (IC50) is 910 nM.

B22: Peptide 12 (Ac-RRKQAAPQHI-NH2) (peptide)
peptide: Ac-RRKQAAPQHI-NH2
Take B22: the concentration for half-maximal inhibition (IC50) in test [1] was determined as 160 nM.

B23: Peptide 13 (Ac-RRKQAKAQHI-NH2) (peptide)
peptide: Ac-RRKQAKAQHI-NH2
notes: Ala scan of peptide 6
On to B23, for which, in test [1], the half-maximal inhibitory concentration (IC50) turned out to be 270 nM.

B24: Peptide 19 (Ac-RRRQAKPQHI-NH2) (peptide)
peptide: Ac-RRRQAKPQHI-NH2
notes: K3 mutation of peptide 6
With B24, the IC50 in test [1] came to 630 nM.

B25: Peptide 38 (Ac-RRKQAKPLHI-NH2) (peptide)
peptide: Ac-RRKQAKPLHI-NH2
Regarding B25, the concentration for half-maximal inhibition (IC50) in test [1] came out at 460 nM.

B26: Peptide 17 (Ac-KRKQAKPQHI-NH2) (peptide)
peptide: Ac-KRKQAKPQHI-NH2
notes: R1 mutation of peptide 6
Take B26: in test [1], the half-inhibitory concentration (IC50) came out at 3800 nM.

B27: Peptide 24 (Ac-RRKFAKPQHI-NH2) (peptide)
peptide: Ac-RRKFAKPQHI-NH2
On to B27, for which the concentration for half-maximal inhibition (IC50) in test [3] stood at 50 nM. The “fold enhancement in binding affinity over peptide 6” value in test [2] came out at 7 fold.

B28: Peptide 32 (Ac-RRKQAKVQHI-NH2) (peptide)
peptide: Ac-RRKQAKVQHI-NH2
notes: P7 mutation of peptide 6
As for B28, the IC50 in test [1] was found to be 5800 nM.

B29: Peptide 25 (Ac-RRKQKKPQHI-NH2) (peptide)
peptide: Ac-RRKQKKPQHI-NH2
B29: in test [1], the IC50 amounted to 380 nM.

B30: Peptide 16 (Ac-RRKQAKPQHA-NH2) (peptide)
peptide: Ac-RRKQAKPQHA-NH2
Turning to B30, in test [1], the half-maximal inhibitory concentration (IC50) was 460 nM.

B31: Peptide 33 (Ac-RRKQAKLQHI-NH2) (peptide)
peptide: Ac-RRKQAKLQHI-NH2
notes: P7 mutation of peptide 6
Turning to B31, in test [1], the IC50 turned out to be 4400 nM.

B32: Peptide 28 (Ac-RRKQALPQHI-NH2) (peptide)
peptide: Ac-RRKQALPQHI-NH2
Take B32: in test [1], the 50% inhibitory concentration (IC50) was 310 nM.

B33: Peptide 18 (Ac-RKKQAKPQHI-NH2) (peptide)
peptide: Ac-RKKQAKPQHI-NH2
notes: R2 mutation of peptide 6
As for B33, the IC50 in test [1] worked out at 2300 nM.

B34: Peptide 42 (Ac-RRKQAKPQVI-NH2) (peptide)
peptide: Ac-RRKQAKPQVI-NH2
On to B34, for which the 50% inhibitory concentration (IC50) in test [1] turned out to be 480 nM.

B35: Peptide 21 (Ac-RRKNAKPQHI-NH2) (peptide)
peptide: Ac-RRKNAKPQHI-NH2
notes: Q4 mutation of peptide 6
Regarding B35, the IC50 in test [1] turned out to be 920 nM.

B36: Peptide 11 (Ac-RRKAAKPQHI-NH2) (peptide)
peptide: Ac-RRKAAKPQHI-NH2
Turning to B36, the IC50 in test [1] is 190 nM.

B37: Peptide 31 (Ac-RRKQAKpQHI-NH2) (peptide)
peptide: Ac-RRKQAK[code p]QHI-NH2
modifications: not fully specified; printed as Ac-RRKQAKpQHI-NH2
notes: P7 mutation of peptide 6; position 7 printed in lower case
For B37, in test [1], the IC50 worked out at 6600 nM.

B38: Peptide 3 (Ac-MSRRKQAKPQ-NH2) (peptide)
peptide: Ac-MSRRKQAKPQ-NH2
notes: C-terminal truncation of WT
With B38, the IC50 in test [1] came to 800 nM.

B39: SALL4 (1-12) peptide bearing the K5A mutation (peptide)
peptide: MSRRAQAKPQHI
B39: the concentration for half-maximal inhibition (IC50) in test [3] was determined as 7000 nM.

B40: mut K5A,Q6A (peptide)
peptide: MSRRAAAKPQHI
notes: One of the double mutants with the loss of only one key residue (group m57); also called SALL4 (1-12) peptide, double mutant K5A-Q6A
For B40, the half-maximal inhibitory concentration (IC50) in test [4] and in test [5] was 4400 nM in each case.

B41: SALL4 (1-12) peptide bearing the R3A mutation (peptide)
peptide: MSARKQAKPQHI
B41: the half-maximal inhibitory concentration (IC50) in test [3] came to 3800 nM; in test [4], 4500 nM; in test [5] it was 4500 nM.

B42: SALL4 (1-12) peptide bearing the R4A mutation (peptide)
peptide: MSRAKQAKPQHI
Consider B42, for which the IC50 in test [3] worked out at 8900 nM.

B43: SALL4 (1-12) peptide bearing the Q6A mutation (peptide)
peptide: MSRRKAAKPQHI
On to B43, for which the IC50 in test [3] is 1300 nM.

B44: mut R4A,Q6A (peptide)
peptide: MSRAKAAKPQHI
notes: One of the double mutants with the loss of only one key residue (group m57); also called SALL4 (1-12) peptide, double mutant R4A-Q6A
Consider B44, for which the half-maximal inhibitory concentration (IC50) in test [4] and in test [5] was 4700 nM throughout.

B45: mut R3A,Q6A (peptide)
peptide: MSARKAAKPQHI
notes: One of the double mutants with the loss of only one key residue (group m57); also called SALL4 (1-12) peptide, double mutant R3A-Q6A
Take B45: the half-maximal inhibitory concentration (IC50) in test [4] and in test [5] was 4100 nM each time.

B46: Peptide 1 (Ac-MSRRKQAKPQHI-NH2) (peptide)
peptide: Ac-MSRRKQAKPQHI-NH2
notes: also called WT; original 12-residue WT peptide
For B46, the values for the half-inhibitory concentration (IC50) in test [3] and in test [1] were 1300 nM and 1040 nM, respectively.

B47: Peptide 4 (Ac-MSRRKQAKP-NH2) (peptide)
peptide: Ac-MSRRKQAKP-NH2
notes: C-terminal truncation of WT
Take B47: the IC50 in test [3] was 1960 nM; in test [1], 1910 nM.
